According to patent US20090311283A1:
Read-outs that look alike come from different tables or passages of the source.

Assays:
HLA-DRB4*0101 (human) = molecular target: T1, HLA-DRB4*0101 (human)
T1 chain 1: not shown
T1 chain 2: not shown

HLA-DRB1*0101 (human) = molecular target: T2, HLA-DRB1*0101 (human)
T2 chain 1: not shown
T2 chain 2: not shown

HLA-A*0101 (Human) = details: remark: other sources report otherwise
HLA-DRB1*0701 (human) = molecular target: T3, HLA-DRB1*0701 (human)
T3 chain 1: not shown
T3 chain 2: not shown

HLA-DRB1*0401 (human) = molecular target: T4, HLA-DRB1*0401 (human)
T4 chain 1: not shown
T4 chain 2: not shown

[1] = molecular target: HLA-DR9 (DRB1*0901) (human); assay: competition with 125I probe peptide for purified HLA-DR, gel filtration
[2] = molecular target: T5, HLA-DR5w11 (DRB1*1101) (human); assay: as above
T5 chain 1: not shown
T5 chain 2: not shown

[3] = molecular target: T6, HLA-DR8w2 (DRB1*0802) (human); assay: as above
T6 chain 1: not shown
T6 chain 2: not shown

[4] = molecular target: T7, HLA-DRw53 (DRB4*0101) (human); assay: as above
T7 chain 1: not shown
T7 chain 2: not shown

[5] = molecular target: T8, HLA-DR4w4 (DRB1*0401) (human); assay: as above
T8 chain 1: not shown
T8 chain 2: not shown

[6] = molecular target: T9, HLA-DR6w19 (DRB1*1302) (human); assay: as above
T9 chain 1: not shown
T9 chain 2: not shown

[7] = molecular target: T10, HLA-DR7 (DRB1*0701) (human); assay: as above
T10 chain 1: not shown
T10 chain 2: not shown

[8] = molecular target: T11, HLA-DR1 (DRB1*0101) (human); assay: as above
T11 chain 1: not shown
T11 chain 2: not shown

[9] = molecular target: HLA-DR5w12 (DRB1*1201) (human); assay: as above
[10] = molecular target: T8, HLA-DR4w4 (DRB1*0401) (human); assay: 125I-probe competition on purified DR4w4; ratio vs standard 515.01 (IC50 45 nM)
[11] = molecular target: T11, HLA-DR1 (DRB1*0101) (human); assay: 125I-probe competition on purified DR1; ratio vs standard 515.01 (IC50 5.0 nM)
[12] = molecular target: HLA-DR5w11 (DRB1*1101) (human)
[13] = molecular target: HLA-DR7 (DRB1*0701) (human)
[14] = molecular target: T7, HLA-DRw53 (DRB4*0101) (human); assay: 125I-probe competition on purified DRw53; ratio vs standard 717.01 (IC50 58 nM)
[15] = molecular target: T12, HLA-DR4w15 (DRB1*0405) (human); assay: 125I-probe competition on purified DR4w15; ratio vs standard 717.01 (IC50 38 nM)
T12 chain 1: not shown
T12 chain 2: not shown

HLA-A*2401 (human) = assay: competition with 125I-labelled probe peptide ([..]) for purified HLA, gel filtration; relative to standard peptide 979.02
HLA-B*5401 (human) = assay: competition with 125I-labelled probe peptide for purified HLA, gel filtration
HLA-B*5301 (human) = assay: as above
HLA-B*3501 (human) = assay: as above
HLA-B*0702 (human) = assay: as above
HLA-A*0301 (human) = assay: competition with 125I-labelled probe peptide for purified HLA-A*0301, gel filtration; relative binding; details: scale: ratio
[16] = molecular target: T13, HLA-DR2w2β1 (DRB1*1501) (human); assay: 125I-probe competition on purified DR2w2β1; ratio vs standard 507.02 (IC50 […]); details: remark: other sources report otherwise
T13 chain 1: not shown
T13 chain 2: not shown

[17] = molecular target: HLA-DR9 (DRB1*0901) (human); details: remark: other sources report otherwise
[18] = molecular target: HLA-DR6w19 (DRB1*1302) (human); details: remark: other sources report otherwise
[19] = molecular target: HLA-DR2w2β2 (DRB5*0101) (human)
[20] = molecular target: HLA-DR8w2 (DRB1*0802) (human); details: remark: other sources report otherwise

B1: … (HBV POL 38, 15-mer) (peptide)
peptide: AEDLNLGNLNVSIPW
modifications: not checked
With B1 the binding affinity ratio (IC50 of standard peptide / IC50 of test peptide) (HLA-DRB4*0101 (human)) was 0.017 and the binding affinity ratio (IC50 of standard peptide / IC50 of test peptide) (HLA-DRB1*0101 (human)) was 0.0001.

B2: HBV POL 760 peptide … (peptide)
peptide: ILRGTSFVY
modifications: not checked
With B2 the binding affinity ratio (IC50 of the standard peptide / IC50 of the test peptide) (HLA-A*0101 (Human)) was 0.0017.

B3: … (HBV POL 40, 15-mer) (peptide)
peptide: DLNLGNLNVSIPWTH
modifications: not checked
Work on B3 yielded a binding affinity ratio (IC50 of standard peptide / IC50 of test peptide) (HLA-DRB1*0701 (human)) of 0.001, a binding affinity ratio (IC50 of standard peptide / IC50 of test peptide) (HLA-DRB1*0401 (human)) of 0.024 and a binding affinity ratio (IC50 of standard peptide / IC50 of test peptide) (HLA-DRB1*0101 (human)) of 0.0038.

B4: HBV ENV 342 peptide … (peptide)
peptide: FVQWFVGLSPTVWLS
modifications: not checked
Binder B4 has a relative binding (IC50 of standard peptide / IC50 of test peptide) [1] of 0.041, a relative binding (IC50 of standard peptide / IC50 of test peptide) [2] of 0.0072 and a relative binding (IC50 of standard peptide / IC50 of test peptide) [3] of 0.018. It also gave a relative binding (IC50 of standard peptide / IC50 of test peptide) [4] of 0.0044, a relative binding (IC50 of standard peptide / IC50 of test peptide) [5] of 0.013 and a relative binding (IC50 of standard peptide / IC50 of test peptide) [6] of 0.019. It also gave a relative binding (IC50 of standard peptide / IC50 of test peptide) [7] of 0.069, a relative binding (IC50 of standard peptide / IC50 of test peptide) [8] of 0.47 and a relative binding (IC50 of standard peptide / IC50 of test peptide) [9] of 0.0021.

B5: HBV POL exemplary 15-mer … (peptide)
peptide: WPKFAVPNLQSLTNL
modifications: not checked
With B5 the binding affinity ratio (standard IC50 / test IC50) [10] was 0.0023, the binding affinity ratio (standard IC50 / test IC50) [11] was 0.0007 and the binding affinity ratio (standard IC50 / test IC50) [12] was 0.0002. It also gave a binding affinity ratio (standard IC50 / test IC50) [13] of 0.0008 and a binding affinity ratio (standard IC50 / test IC50) [14] of 0.018.

B6: HBV POL exemplary 15-mer … (peptide)
peptide: CQVFADATPTGWGLA
modifications: not checked
For B6, the binding affinity ratio (standard IC50 / test IC50) [15] was 0.28.

B7: HBV POL 395 … (peptide)
peptide: KFAVPNLQSL
modifications: not checked
Binder B7 has a binding affinity ratio (IC50 of the standard peptide / IC50 of the test peptide) (HLA-A*2401 (human)) of 0.002.

B8: HBV POL 50 … (peptide)
peptide: IPWTHKVGNF
modifications: not checked
With B8 the binding affinity ratio (IC50 standard peptide / IC50 test peptide) (HLA-B*5401 (human)) was 0.0002, the binding affinity ratio (IC50 standard peptide / IC50 test peptide) (HLA-B*5301 (human)) was 0.0001 and the binding affinity ratio (IC50 standard peptide / IC50 test peptide) (HLA-B*3501 (human)) was 0.0001. For the same binder, the binding affinity ratio (IC50 standard peptide / IC50 test peptide) (HLA-B*0702 (human)) was 0.0013.

B9: HBV ENV 256 FLLVLLDY (peptide)
peptide: FLLVLLDY
modifications: not checked
B9 was tested, and the binding affinity ratio (relative to the standard peptide) (HLA-A*0301 (human)) was 0.005.

B10: HBV POL exemplary 15-mer … (peptide)
peptide: VGNFTGLYSSTVPVF
modifications: not checked
With B10 the binding affinity ratio (standard IC50 / test IC50) [16] was 0.01, the binding affinity ratio (standard IC50 / test IC50) [17] was 0.31 and the binding affinity ratio (standard IC50 / test IC50) [18] was 0.058. The binding affinity ratio (standard IC50 / test IC50) [19] was 0.0016, the binding affinity ratio (standard IC50 / test IC50) [20] was 0.0044 and the binding affinity ratio (standard IC50 / test IC50) ([13]; remark: other sources report otherwise) was 0.58.
